Laboratory results published in patent publication US20220267443A1 (AGENUS, published 2022).

T1: recombinant human CTLA-4-Fc (R&D Systems, #7268-CT) (human, UniProt P16410 36-161)
T1 construct: Bought protein; also called rhCTLA-4-Fc; CTLA-4 antigen; not shown: Fc part of the bought fusion protein
T1 sequence: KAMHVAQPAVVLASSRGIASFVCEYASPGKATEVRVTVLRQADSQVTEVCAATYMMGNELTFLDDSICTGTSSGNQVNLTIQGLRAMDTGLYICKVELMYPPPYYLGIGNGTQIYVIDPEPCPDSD


Molecular target: T1, recombinant human CTLA-4-Fc (R&D …)
Assay: surface plasmon resonance, antibody captured on CM5 chip, rhCTLA-4-Fc in solution
Description: To detect nonspecific interactions of the CTLA-4 antigen, antibody capture was only performed in flow cell 2, whereas in flow cell 1 only the capturing antibody was immobilized. After capture of the anti-CTLA-4 antibodies, the CTLA-4 antigens were run through both flow cells in different amounts. Specifically, recombinant human CTLA-4-Fc (R&D Systems, #7268-CT), recombinant human CTLA-4 (Sino Biological, #11159-H08H), recombinant cynomolgus CTLA-4-Fc (Sino Biological, #90213-C02H), and recombinant cynomolgus CTLA-4 (Sino Biological, #90213-C08H) were run at 100 nM, 25 nM, and 6.25 nM; and recombinant mouse CTLA-4-Fc (R&D, # 434-CT), recombinant rat CTLA-4-Fc (Sino Biological, #81069-RO2H), and recombinant rat CTLA-4 (Sino Biological, #81069-R08H) were run at 400 nM, 100 nM, and 25 nM. A blank curve (running buffer only) was also included in each run. Association was run for 90 seconds and dissociation for 600 seconds with a flow rate of 10 μl/min. After each run a regeneration step was performed with 10 mM Glycine pH 2.0 (GE Healthcare, BR-1003-55) for 60 seconds with 30 μl/min. Binding curves were evaluated using BIAcore® T200 evaluation software version 2.0.1 applying a Langmuir 1:1 model with global fit of Rmax. From these values the affinities (KD) of AGEN1884 and the reference anti-CTLA-4 antibody for various antigens were calculated and shown in FIG. 1A. The recombinant monomeric cynomolgus CTLA-4, mouse CTLA-4-Fc, and monomeric rat CTLA-4 used in this study failed quality control assessment. […] The surface plasmon resonance analysis was later repeated twice using recombinant mouse CTLA-4-Fc (Sino Biological, #81069-R02H) that passed a quality control assessment at 360 nM, 120 nM, 40 nM, and 13.3 nM for AGEN1884w.
The affinity of the 19 anti-CTLA-4 antibodies described above was analyzed by surface plasmon resonance in an assay similar to the one described in Section 6.1.1. The CTLA-4 antigen tested was recombinant human CTLA-4-Fc (R&D Systems, #7268-CT). The anti-CTLA-4 antibodies (6 μg/ml in running buffer) were captured to the chip surface of a CMS sensor chip.

Binder	binding result
AGEN1896 (antibody, V domains shown) VH: EVQLLESGGGLVKPGGSLRLSCAASGFTFSSYSMNWVRQAPGKGLEWVSSISSSSSYIYYADSVKGRFTISRDNAKNSLYLQMNSLRAEDTAVYYCARVGLMGPFDIWGQGTMVTVSS VL: EIVLTQSPATLSFSPGERATLSCRASQSVSSYLAWYQQKPGQAPRLLIYGASSRATGIPDRFSGSGSGTDFTFTISRLEPEDFAVYYCQQYGSSPFTFGPGTKVDIK	binds
AGEN1898 (antibody, V domains shown) VH: EVQLLESGGGLVQPGGSLRLSCAASGFTFSSYAMSWVRQAPGKGLVWVSSISSSSSYIYYADSVKGRFTISRDNAKNSLYLQMNSLRAEDTAVYYCARVGLMGPFNIWGQGTMVTVSS VL: EIVLTQSPATLSLSPGERATLSCRASQSVSSYLAWYQQKPGQAPSLLIYATSSRATGIPDRFSGSVSGTDFTLTISRLEPEDFAVYYCQQYGTSPWTFGQGTKVEIK	binds
AGEN1887 (antibody, V domains shown) VH: EVQLLESGGGLVQPGGSLRLSCAASGFTFSSYAMSWVRQAPGKGLVWVSSISSSSSYIYYADSVKGRFTISRDNAKNSLYLQMNSLRAEDTAVYYCARVGLMGPFDIWGQGTMVTVSS VL: EIVLTQSPGTLSLSPGERATLSCRASQSVSRYLGWYQQKPGQAPRLLIYGASTRATGIPDRFSGSGSGTDFTLTITRLEPEDFAVYYCQQYGSSPWTFGQGTKVEIK	binds
AGEN1901 (antibody, V domains shown) VH: EVQLVESGGGLVQPGGSLTLSCAASGFTFSSYSMNWVRQAPGKGLEWVSSISSSSSYIYYADSVKGRFTISRDNAKNSLYLQMNSLRAEDTAVYYCARVGLMGPFDIWGQGTMVTVSS VL: EIVLTQSPATLSLSPGERATLSCRASQSVGTYLAWYQHKVGQAPRLLIYGASRRATGIPDRFSGSGSGTDFTLTISRLEPEDFAVYYCQQYGSSPWTFGQGTKVEIK	binds
AGEN1899 (antibody, V domains shown) VH: EVQLLESGGGLVQPGGSLRLSCAASGFTFSSYAMSWVRQAPGKGLVWVSSISSSSSYIYYADSVKGRFTISRDNAKNSLYLQMNSLRAEDTAVYYCARVGLMGPFNIWGQGTMVTVSS VL: EIVLTQSPATLSFSPGERATLSCRASQSVSSYLAWYQQKPGQAPRLLIYGASSRATGIPDRFSGSGSGTDFTFTISRLEPEDFAVYYCQQYGSSPFTFGPGTKVDIK	binds
AGEN1885 (antibody, V domains shown) VH: EVQLVESGGGLVKPGGSLRLSCAASGFTFSSYSMNWVRQAPGKGLEWVSSISSSSSYIYYADSVKGRFTISRDNAKNSLYLQMNSLRAEDTAVYYCARVGLMGPFDIWGQGTMVTVSS VL: EIVLTQSPATLSLSPGERATLSCRASQSVSSYLAWYQQKPGQAPSLLIYATSSRATGIPDRFSGSVSGTDFTLTISRLEPEDFAVYYCQQYGTSPWTFGQGTKVEIK	binds
AGEN1890 (antibody, V domains shown) VH: EVQLVESGGGLVKPGGSLRLSCAASGFTFSSYSMNWVRQAPGKGLEWVSSISSSSSYIYYADSVKGRFTISRDNAKNTLYLQMNSLRAEDTAVYYCARVGLMGPFDIWGQGTMVTVSS VL: EIVLTQSPATLSFSPGERATLSCRASQSVSSYLAWYQQKPGQAPRLLIYGASSRATGIPDRFSGSGSGTDFTFTISRLEPEDFAVYYCQQYGSSPFTFGPGTKVDIK	binds
AGEN1889 (antibody, V domains shown) VH: EVQLVESGGGLVKPGGSLRLSCAASGFTFSSYSMNWVRQAPGKGLEWVSSISSSSSYIYYADSVKGRFTISRDNAKNTLYLQMNSLRAEDTAVYYCARVGLMGPFDIWGQGTMVTVSS VL: EIVLTQSPATLSLSPGERATLSCRASQSVGTYLAWYQHKVGQAPRLLIYGASRRATGIPDRFSGSGSGTDFTLTISRLEPEDFAVYYCQQYGSSPWTFGQGTKVEIK	binds
AGEN1895 (antibody, V domains shown) VH: EVQLLESGGGLVKPGGSLRLSCAASGFTFSSYSMNWVRQAPGKGLEWVSSISSSSSYIYYADSVKGRFTISRDNAKNSLYLQMNSLRAEDTAVYYCARVGLMGPFDIWGQGTMVTVSS VL: EIVLTQSPATLSLSPGERATLSCRASQSVSSYLAWYQQKPGQAPSLLIYATSSRATGIPDRFSGSVSGTDFTLTISRLEPEDFAVYYCQQYGTSPWTFGQGTKVEIK	binds

Results, then the binder that gave them:

binding result	Binder
binds	AGEN1897 (antibody, V domains shown) VH: EVQLLESGGGLVQPGGSLRLSCAASGFTFSSYAMSWVRQAPGKGLVWVSSISSSSSYIYYADSVKGRFTISRDNAKNSLYLQMNSLRAEDTAVYYCARVGLMGPFNIWGQGTMVTVSS VL: EIVLTQSPGTLSLSPGERATLSCRASQSVSRYLGWYQQKPGQAPRLLIYGASTRATGIPDRFSGSGSGTDFTLTITRLEPEDFAVYYCQQYGSSPWTFGQGTKVEIK
binds	AGEN1888 (antibody, V domains shown) VH: EVQLLESGGGLVQPGGSLRLSCAASGFTFSSYAMSWVRQAPGKGLVWVSSISSSSSYIYYADSVKGRFTISRDNAKNSLYLQMNSLRAEDTAVYYCARVGLMGPFDIWGQGTMVTVSS VL: EIVLTQSPATLSFSPGERATLSCRASQSVSSYLAWYQQKPGQAPRLLIYGASSRATGIPDRFSGSGSGTDFTFTISRLEPEDFAVYYCQQYGSSPFTFGPGTKVDIK
binds	AGEN1891 (antibody, V domains shown) VH: EVQLVESGGGLVKPGGSLRLSCAASGFTFSSYSMNWVRQAPGKGLEWVSSISSSSSYIYYADSVKGRFTISRDNAKNTLYLQMNSLRAEDTAVYYCARVGLMGPFDIWGQGTMVTVSS VL: EIVLTQSPATLSVSPGERATLSCRASQSVSSYLAWYQQKPGQAPRLLIYAASTRATGIPDRFSGSASGTDFTLTISRLEPEDFAVYYCQQYGSSPWTFGQGTKVEIK
binds	AGEN1892 (antibody, V domains shown) VH: EVQLVESGGGLVKPGGSLRLSCAASGFTFSSYSMNWVRQAPGKGLEWVSSISSSSSYIYYADSVKGRFTISRDNAKNTLYLQMNSLRAEDTAVYYCARVGLMGPFDIWGQGTMVTVSS VL: EIVLTQSPATLSLSPGERATLSCRASQSVSSYLAWYQQKPGQAPRLLIYGASNRATGIPARFSGSGSGTDFTLTISSLEPEDFAVYYCQQYGSSPFTFGPGTKVDIK
binds	AGEN1893 (antibody, V domains shown) VH: EVQLLESGGGLVKPGGSLRLSCAASGFTFSSYSMNWVRQAPGKGLEWVSSISSSSSYIYYADSVKGRFTISRDNAKNSLYLQMNSLRAEDTAVYYCARVGLMGPFDIWGQGTMVTVSS VL: EIVLTQSPATLSLSPGERATLSCRASQSVGTYLAWYQHKVGQAPRLLIYGASRRATGIPDRFSGSGSGTDFTLTISRLEPEDFAVYYCQQYGSSPWTFGQGTKVEIK
binds	AGEN1900 (antibody, V domains shown) VH: EVQLLESGGGLVQPGGSLRLSCAASGFTFSSYAMSWVRQAPGKGLVWVSSISSSSSYIYYADSVKGRFTISRDNAKNSLYLQMNSLRAEDTAVYYCARVGLMGPFNIWGQGTMVTVSS VL: EIVLTQSPATLSLSPGERATLSCRASQSVSSYLAWYQQKPGQAPRLLIYGASNRATGIPARFSGSGSGTDFTLTISSLEPEDFAVYYCQQYGSSPFTFGPGTKVDIK
binds	AGEN1902 (antibody, V domains shown) VH: EVQLVESGGGLVQPGGSLTLSCAASGFTFSSYSMNWVRQAPGKGLEWVSSISSSSSYIYYADSVKGRFTISRDNAKNSLYLQMNSLRAEDTAVYYCARVGLMGPFDIWGQGTMVTVSS VL: EIVLTQSPATLSFSPGERATLSCRASQSVSSYLAWYQQKPGQAPRLLIYGASSRATGIPDRFSGSGSGTDFTFTISRLEPEDFAVYYCQQYGSSPFTFGPGTKVDIK
binds	AGEN1886 (antibody, V domains shown) VH: EVQLVESGGGLVKPGGSLRLSCAASGFTFSSYSMNWVRQAPGKGLEWVSSISSSSSYIYYADSVKGRFTISRDNAKNSLYLQMNSLRAEDTAVYYCARVGLMGPFDIWGQGTMVTVSS VL: EIVLTQSPATLSFSPGERATLSCRASQSVSSYLAWYQQKPGQAPRLLIYGASSRATGIPDRFSGSGSGTDFTFTISRLEPEDFAVYYCQQYGSSPFTFGPGTKVDIK
